The text below walks through data of publication PMC7669825, “Escherichia coli RelA Regulation via Its C-Terminal Domain” (Frontiers in Microbiology, 2020).

The target in data set [1] is T1, RelA (Escherichia coli, full length, His-tagged) (Escherichia coli, UniProt P0AG20 1-744).
T1 construct: RelA, (p)ppGpp synthetase of Escherichia coli, 84 kDa, 744 AA (NTD AAs 1-455, CTD AAs 405-744); also called WT RelA; WT-RelA; source: E. coli CF9467 (pQE30-relA), purified (Ni-NTA agarose); not shown: His6, N-terminal, kept
T1 sequence (looked up): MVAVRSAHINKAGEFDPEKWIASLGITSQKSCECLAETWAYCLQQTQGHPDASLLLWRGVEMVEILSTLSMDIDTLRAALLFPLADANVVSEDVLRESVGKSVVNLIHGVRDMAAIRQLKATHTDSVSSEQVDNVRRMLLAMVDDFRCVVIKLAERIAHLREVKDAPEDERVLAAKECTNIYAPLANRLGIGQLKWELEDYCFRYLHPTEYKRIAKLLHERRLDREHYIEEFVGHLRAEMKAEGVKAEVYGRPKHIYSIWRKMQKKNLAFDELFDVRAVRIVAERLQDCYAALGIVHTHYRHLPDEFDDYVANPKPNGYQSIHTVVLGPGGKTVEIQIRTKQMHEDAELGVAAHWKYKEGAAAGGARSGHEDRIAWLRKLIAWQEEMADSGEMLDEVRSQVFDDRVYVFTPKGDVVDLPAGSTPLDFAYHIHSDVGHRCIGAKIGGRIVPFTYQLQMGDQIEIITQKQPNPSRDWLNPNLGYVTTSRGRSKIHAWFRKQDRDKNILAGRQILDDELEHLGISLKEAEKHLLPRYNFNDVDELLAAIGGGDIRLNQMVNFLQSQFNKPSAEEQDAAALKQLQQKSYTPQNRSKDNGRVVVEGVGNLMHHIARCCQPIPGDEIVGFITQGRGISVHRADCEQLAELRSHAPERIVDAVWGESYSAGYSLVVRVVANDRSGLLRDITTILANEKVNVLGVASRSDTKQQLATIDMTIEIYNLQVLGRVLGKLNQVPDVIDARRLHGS
Briefly: cross-linking; 10 ul with 12.5 mM Na phosphate pH 7.2, 12.5 mM NaCl, 2.5% glycerol, 1 x 10^-3% glutaraldehyde, 4 ug of protein; 15 min on ice; SDS-PAGE and Western blot with anti-His antibody. The conditions noted are these: both partners purified.

Data set [2] concerns the molecule itself. Described as above.

B1: YG4 (fragment of the RelA C-terminal domain, AA 564-744, His-tagged) (domain or fragment, Escherichia coli, UniProt P0AG20 564-744, looked up)
chain: FNKPSAEEQDAAALKQLQQKSYTPQNRSKDNGRVVVEGVGNLMHHIARCCQPIPGDEIVGFITQGRGISVHRADCEQLAELRSHAPERIVDAVWGESYSAGYSLVVRVVANDRSGLLRDITTILANEKVNVLGVASRSDTKQQLATIDMTIEIYNLQVLGRVLGKLNQVPDVIDARRLHGS
notes: RelA of Escherichia coli, AA 564-744 (MW 21 kDa); holds the RIS domain (AA 585-660) and the ACT domain (AA 665-744); also called native YG4; WT-YG4; source: E. coli CF9467 (pYG4), purified (Ni-NTA agarose); not shown: His6, N-terminal, kept
In the case of B1, the binding result in data set [1] and in data set [2] was “binds” throughout.
